From article PMC10923862

What was measured:
[1] = molecular target: S-3P, soluble SARS-CoV-2 spike ectodomain with C-terminal foldon trimerization domain (SARS-CoV-2 (Wuhan-Hu-1) | not stated) (UniProt P0DTC2); assay: SEC
[2] = molecular target: S-3P, soluble SARS-CoV-2 spike ectodomain with C-terminal foldon trimerization domain (SARS-CoV-2 (Wuhan-Hu-1) | not stated) (UniProt P0DTC2); assay: SEC-MALS
[3] = molecular target: S-locked, soluble SARS-CoV-2 spike ectodomain with the disulfide 413C-987C that locks the RBD in the closed conformation, without heterologous trimerization domain (SARS-CoV-2 (Wuhan-Hu-1)) (UniProt P0DTC2); assay: SEC-MALS
[4] = molecular target: HexaPro, soluble SARS-CoV-2 spike ectodomain carrying a foldon domain (SARS-CoV-2 (Wuhan-Hu-1) | not stated) (UniProt P0DTC2); assay: SEC
[5] = molecular target: HexaPro, soluble SARS-CoV-2 spike ectodomain carrying a foldon domain (SARS-CoV-2 (Wuhan-Hu-1) | not stated) (UniProt P0DTC2); assay: SEC-MALS
[6] = molecular target: HexaPro spike without foldon (SARS-CoV-2 (Wuhan-Hu-1)) (UniProt P0DTC2); assay: SEC

## S-3P, soluble SARS-CoV-2 spike ectodomain with C-terminal foldon trimerization domain (from UniProt P0DTC2 14-1208)
[1]
  stoichiometry N: 3
[2]
  stoichiometry N: 3

## S-locked, soluble SARS-CoV-2 spike ectodomain with the disulfide 413C-987C that locks the RBD in the closed conformation, without heterologous trimerization domain (from UniProt P0DTC2 14-1208)
[3]
  stoichiometry N: 3

## HexaPro, soluble SARS-CoV-2 spike ectodomain carrying a foldon domain (from UniProt P0DTC2 14-1208)
[4]
  stoichiometry N: 3
[5]
  stoichiometry N: 3

## HexaPro spike without foldon (from UniProt P0DTC2 14-1208)
[6]
  stoichiometry N: 3
